Test results as given in PMC11143242 (2024).

Legend:
Assay in all cases: SPR
CPXV CPXV199 [1] = biological target: T1, CPXV CPXV199 (cowpox virus (CPXV))
VARV B7 [2] = biological target: T2, VARV B7 (variola virus (VARV))
VACV B5 [3] = biological target: T3, VACV B5 (vaccinia virus (VACV), UniProt Q01227 18-317)
CPXV CPXV199 [4] = biological target: T1, CPXV CPXV199; remark: listed apart in the source
MPXV B6 protein = MPXV B6 protein (monkeypox virus (MPXV))
VARV B7 [5] = biological target: T2, VARV B7; remark: listed apart in the source
VACV B5 [6] = biological target: T3, VACV B5; remark: listed apart in the source

| Binder | Kd (CPXV CPXV199 [1]) | Kd (VARV B7 [2]) | Kd (VACV B5 [3]) | koff (CPXV CPXV199 [4]) | koff (MPXV B6 protein) | koff (VARV B7 [5]) | koff (VACV B5 [6]) |
| --- | --- | --- | --- | --- | --- | --- | --- |
| hMB668 (antibody, V domains shown) VH: QVQLVQSGAEVKKPGSSVKVSCKSSGGTFSDYAINWVRQAPGQGLEWMGRILPIVGVPNYAQKFQGRVTITADKSSSTAYKEVSGLRSEDTAVYYCARRSGINGHGLDVWGQGTTVIVSS VL: DIVMTQSPLSLPVTPGEPASISCRSSQSLLNTNGYNYLEWYLHKPGQSPQLLIYLGSHRASGVPDRFSGSGSGTDFTLKISRAEPEDVGVYYCMQTLQTQGYTFGQGTKLEIK | 27.2 nM | 15.8 nM | 3.1 nM | 0.00011 s⁻¹ | 7.8e-05 s⁻¹ | 5.5e-05 s⁻¹ | 8.2e-05 s⁻¹ |
| hMB621 (antibody, V domains shown) VH: QVQLVQSGGGVVQPGRSLRLSCVASGFSISTYPLHWVRQAPGKGLEWVAVISHDGRNKYYADSVKGRFSISRDNSKNTVYLQMNSLRVEDTAVYYCARAYPYAFDVWGQGTLVTVSS VL: EIVLTQSPATLSVSPGETATLSCRASQSVRNDLAWYQQKPGQAPRLLIYGASTRASGIPARFSGSGSGTEFTLTISSLQSEDFAIYYCQQYKDWPPWTFGQGTKVEIK | 2.6 nM | 5.1 nM | 2.8 nM | 0.00011 s⁻¹ | 9.7e-05 s⁻¹ | 0.00019 s⁻¹ | 0.00017 s⁻¹ |
